T1: OsSMF1 (RISBZ1, OsbZIP58)-DsRed fusion (Oryza sativa cv. Ilmi, UniProt Q6ZLB0 1-436)
T1 sequence: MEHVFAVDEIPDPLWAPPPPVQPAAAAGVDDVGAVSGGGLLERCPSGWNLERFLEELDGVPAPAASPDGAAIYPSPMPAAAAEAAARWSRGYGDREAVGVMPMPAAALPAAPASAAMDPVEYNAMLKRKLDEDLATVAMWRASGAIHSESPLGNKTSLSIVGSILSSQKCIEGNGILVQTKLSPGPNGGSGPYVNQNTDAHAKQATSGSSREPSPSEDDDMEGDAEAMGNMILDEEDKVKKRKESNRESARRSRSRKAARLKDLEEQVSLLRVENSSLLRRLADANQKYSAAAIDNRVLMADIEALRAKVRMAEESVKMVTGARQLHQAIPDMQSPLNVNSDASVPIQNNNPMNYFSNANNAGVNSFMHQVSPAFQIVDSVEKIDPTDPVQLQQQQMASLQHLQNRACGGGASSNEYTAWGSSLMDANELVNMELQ

B1: ACGT 21-bp wild type (dsDNA)
DNA 1: AAGCGCCACGTCAGCCAAAAC
DNA 2: GTTTTGGCTGACGTGGCGCTT
B2: GCN4 21-bp wild type (dsDNA)
DNA 1: GTTTGTCATGGCTGAGTCATG
DNA 2: CATGACTCAGCCATGACAAAC
B3: ATGA 21-bp wild type (dsDNA)
DNA 1: CTGATTCGGATGACGGACGAA
DNA 2: TTCGTCCGTCATCCGAATCAG

Molecular target: T1, OsSMF1 (RISBZ1, OsbZIP58)-DsRed fusion
Test: EMSA (SYBR Gold); 5 mM MgCl2; Kd EMSA: 10 mM Tris, 50 mM KCl, 1 mM DTT pH 7.5, 50 ng/ul poly(dI-dC), 2.5% glycerol, 0.05% NP-40, 5 mM MgCl2, 0.2 ug/ul OsSMF1, DNA 0-6 uM, 1 h room temperatur
Settings: protein: recombinant; tags: DsRed fusion; Ni-NTA purified; chain copies: 2; SYBR Gold stain (Kd); 21 bp

| Binder | Kd [nM] |
| --- | --- |
| B1 | 335 |
| B2 | 646 |
| B3 | 1120 |
